From patent CN110563841A

Assays:
[1] = target: 重组Grb2蛋白 (recombinant Grb2 protein) (UniProt P62993); assay: ELISA, recombinant Grb2 coated, antibody 100 ng/mL, goat anti-human IgG Fc-HRP secondary
[2] = target: 重组Grb2蛋白 (recombinant Grb2 protein) (UniProt P62993); assay: ELISA, recombinant Grb2 coated, antibody 100 ng/mL, goat anti-mouse IgG Fc-HRP secondary (does not detect human IgG)

Chain of UniProt P62993 (P62993 whole entry): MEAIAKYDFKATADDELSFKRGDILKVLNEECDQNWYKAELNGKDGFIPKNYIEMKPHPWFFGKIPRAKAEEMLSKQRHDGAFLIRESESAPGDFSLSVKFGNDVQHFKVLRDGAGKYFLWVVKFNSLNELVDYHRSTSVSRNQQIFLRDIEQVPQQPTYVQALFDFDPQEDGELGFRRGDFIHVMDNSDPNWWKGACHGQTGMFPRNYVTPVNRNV

Which OD490 [1] does the source give for “人IgG1 (irrelevant human IgG1 control antibody)” here?
The OD490 was 0.073.

What about the OD490 [2] of the same substance?
Its OD490 is 0.073.
